Experimental findings from patent US20100240066A1 (MCGILL UNIVERSITY, published 2010) are described below.

Where two headings read alike, the source gives them in different places. Where no end group is shown, it is not given here.

Holding throughout (test): phage ELISA
On the technique in general: In an ELISA, binding on a coated surface is turned into a signal by an enzyme label.

Test [1] deals with T1, E-cadherin/Fc chimeric protein (human, UniProt P12830 155-707).
T1 construct: range 155-707; Bought from R&D Systems; also called E-cad/Fc; human E-cadherin/Fc chimeric protein; not shown: Fc region of human IgG1
T1 sequence (looked up): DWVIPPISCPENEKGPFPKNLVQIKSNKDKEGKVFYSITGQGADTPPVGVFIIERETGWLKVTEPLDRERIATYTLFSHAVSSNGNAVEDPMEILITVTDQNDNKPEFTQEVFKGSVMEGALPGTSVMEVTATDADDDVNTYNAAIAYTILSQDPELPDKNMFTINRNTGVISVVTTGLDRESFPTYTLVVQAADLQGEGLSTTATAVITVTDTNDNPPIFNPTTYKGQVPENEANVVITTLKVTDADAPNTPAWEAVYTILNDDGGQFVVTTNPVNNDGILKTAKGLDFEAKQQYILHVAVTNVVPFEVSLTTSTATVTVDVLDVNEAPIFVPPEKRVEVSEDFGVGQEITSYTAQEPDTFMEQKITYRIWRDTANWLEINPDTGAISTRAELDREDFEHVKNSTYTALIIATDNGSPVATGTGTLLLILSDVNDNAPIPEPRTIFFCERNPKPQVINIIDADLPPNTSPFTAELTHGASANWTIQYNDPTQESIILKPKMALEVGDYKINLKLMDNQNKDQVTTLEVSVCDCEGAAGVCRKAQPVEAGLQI
Here is the method: (§1) The phage clones shown to bind to the N-cadherin/Fc chimeric protein by ELISA were also evaluated for their ability to bind to E-cadherin/Fc and VE-cadherin/Fc chimeric proteins. The phage clones shown to bind to the E-cadherin/Fc chimeric protein by ELISA were also evaluated for their ability to bind to N-cadherin/Fc and VE-cadherin/Fc chimeric proteins. The same ELISA protocol described in the previous section was used to perform this evaluation with the exception that the wells were coated with either 100 ng N-cadherin/Fc, E-cadherin/Fc or VE-cadherin/Fc chimeric protein (R&D Systems, Minneapolis, Minn.).

For test [2], the target named is T2, VE-cadherin/Fc chimeric protein (UniProt P33151 48-593).
T2 construct: Bought from R&D Systems; also called vascular endothelial (VE)-cadherin/Fc chimeric protein; not shown: Fc part not described
T2 sequence (looked up): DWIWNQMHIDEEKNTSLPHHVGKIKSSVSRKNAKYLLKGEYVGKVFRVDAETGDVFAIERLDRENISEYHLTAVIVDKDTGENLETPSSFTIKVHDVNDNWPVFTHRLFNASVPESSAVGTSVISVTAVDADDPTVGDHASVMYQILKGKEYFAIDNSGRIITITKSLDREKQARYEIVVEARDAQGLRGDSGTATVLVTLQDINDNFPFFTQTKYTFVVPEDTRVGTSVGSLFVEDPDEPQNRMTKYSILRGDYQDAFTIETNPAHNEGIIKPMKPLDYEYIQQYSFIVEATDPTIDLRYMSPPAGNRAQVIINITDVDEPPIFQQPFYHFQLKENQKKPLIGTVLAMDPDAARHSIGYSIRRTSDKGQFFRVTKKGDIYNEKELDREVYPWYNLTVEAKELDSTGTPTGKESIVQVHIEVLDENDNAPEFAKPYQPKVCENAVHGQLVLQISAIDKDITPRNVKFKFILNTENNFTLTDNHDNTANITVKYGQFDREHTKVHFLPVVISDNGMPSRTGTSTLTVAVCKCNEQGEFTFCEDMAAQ
Here is the method: as §1

The target of test [3] is T3, N-cadherin/Fc chimeric protein (human, UniProt P19022 160-724).
T3 construct: range 160-724; Bought from R&D Systems; also called N-cad/Fc; human N-cadherin/Fc chimeric protein; not shown: Fc region of human IgG1
T3 sequence (looked up): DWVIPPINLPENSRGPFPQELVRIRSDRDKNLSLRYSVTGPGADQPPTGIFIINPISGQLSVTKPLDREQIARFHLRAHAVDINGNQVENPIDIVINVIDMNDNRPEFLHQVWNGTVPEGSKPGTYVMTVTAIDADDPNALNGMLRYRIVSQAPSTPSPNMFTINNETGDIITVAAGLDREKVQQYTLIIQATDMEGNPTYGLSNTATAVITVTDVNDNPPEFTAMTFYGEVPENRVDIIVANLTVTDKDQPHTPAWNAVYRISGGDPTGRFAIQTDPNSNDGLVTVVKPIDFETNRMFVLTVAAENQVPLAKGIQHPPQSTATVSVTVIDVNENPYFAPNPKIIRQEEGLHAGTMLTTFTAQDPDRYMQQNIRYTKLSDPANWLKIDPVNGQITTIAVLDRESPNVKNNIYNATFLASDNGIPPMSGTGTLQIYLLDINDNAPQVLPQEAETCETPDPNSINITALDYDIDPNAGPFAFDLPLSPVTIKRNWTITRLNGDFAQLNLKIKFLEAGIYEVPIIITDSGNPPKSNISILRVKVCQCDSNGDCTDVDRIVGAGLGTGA
Here is the method:
(§2) The binding of each clone to the cadherin/Fc chimeric proteins was confirmed by ELISA. Wells of ProBind microtiter plates (Falcon) were coated with either N-cadherin/Fc or E-cadherin/Fc chimeric protein (100 ng/well) or human IgG1 (which contains the Fc fragment) (100 ng/well). After blocking the nonspecific sites with TBS containing 3% BSA and 1.2 mM CaCl₂ for 1 h at 37° C., phage clones (10⁹ pfu) diluted in TBST containing 3% BSA and 1.2 mM CaCl₂ (100 μl/well). Non-coated wells were also used to exclude any phage that bound to the plastic surface. After 1 h incubation at room temperature, wells were washed 3 times with TBST containing 3% BSA and 1.2 mM CaCl₂. M13 phage without any insert were used to control the non-specific binding of the phage itself to the target. Monoclonal anti-M13 antibody conjugated to horseradish peroxidase (Amersham Biosciences, Piscataway, N.J.) was diluted in TBST containing 3% BSA and 1.2 mM CaCl₂ (1:2,000) and added to each well (100 μl/well). After 1 h incubation at room temperature, wells were washed three times with TBST containing 3% BSA and 1.2 mM CaCl₂ and once with TBS containing 1.2 mM CaCl₂. Horseradish peroxidase substrate, TMB (Sigma), was added to each well (100 μl/well and after color development the reaction was stopped by addition of 100 μl 0.5 M sulphuric acid to each well. The intensity of the color was measured at 450 nm.
as §1

Test [4] concerns the target T1, E-cadherin/Fc chimeric protein. Here is the method: as §2, §1
The source holds these as a separate data set.

Test [5] has as its target T2, VE-cadherin/Fc chimeric protein. Here is the method:
as §2, §1
This is another data set of the same source.

Take SWTLYTPSGQSK (whole phage in the assay) [phage clone Nc 12-a2]: the binding result in test [1] and in test [2] was “no binding (tested: 10^9 pfu)” each time.

With WHTSWSDTY (whole phage in the assay) [phage clone Nc 19], the binding result in test [1] and in test [2] was “no binding (tested: 10^9 pfu)” in each case.

Consider WLQPYFPSY (whole phage in the assay) [phage clone Nc a5], for which the binding result in test [1] and in test [2] was “no binding (tested: 10^9 pfu)” each time.

B1: phage clone Nc 5 (peptide)
peptide: WEFSICETC
modifications: not fully specified; cysteine pairing not given here; also: displayed on M13 phage pIII
notes: whole phage in the assay
In the case of B1, the binding result in test [1] and in test [2] was “no binding (tested: 10^9 pfu)” in each case.

B2: phage clone Ec a3 (peptide)
peptide: WQMVLCPAC
modifications: not fully specified; cysteine pairing not given here; also: displayed on M13 phage pIII
notes: whole phage in the assay
On to B2, for which the binding result was “binds” in test [3], “binds” in test [4] and “no binding (tested: 10^9 pfu)” in test [5].

As to SWTLYTPSGQSK (whole phage in the assay) [phage clone Nc 12-04], the binding result in test [1] and in test [2] was “no binding (tested: 10^9 pfu)” in each case.

B3: phage clone Nc 25 (peptide)
peptide: WELCVSSSC
modifications: not fully specified; cysteine pairing not given here; also: displayed on M13 phage pIII
notes: whole phage in the assay
On to B3, for which the binding result in test [1] and in test [2] was “no binding (tested: 10^9 pfu)” in each case.

B4: phage clone Ec a23 (peptide)
peptide: CSRPQSGLC
modifications: not fully specified; cysteine pairing not given here; also: displayed on M13 phage pIII
notes: whole phage in the assay
On to B4, for which the binding result was “binds” in test [3], “binds” in test [4] and “no binding (tested: 10^9 pfu)” in test [5].

B5: phage clone Nc 8 (peptide)
peptide: WTVCPIGNC
modifications: not fully specified; cysteine pairing not given here; also: displayed on M13 phage pIII
notes: whole phage in the assay
B5: the binding result in test [1] and in test [2] was “no binding (tested: 10^9 pfu)” each time.

B6: phage clone Ec a5 (peptide)
peptide: WTFNFCTAC
modifications: not fully specified; cysteine pairing not given here; also: displayed on M13 phage pIII
notes: whole phage in the assay
On to B6, for which the binding result in test [3] is on record as “binds”; in test [4], “binds”; in test [5], “no binding (tested: 10^9 pfu)”.

As to WTWHWPPCC (whole phage in the assay) [phage clone Ec a22], the results for the binding result in test [3], in test [4] and in test [5] were “binds”, “binds” and “no binding (tested: 10^9 pfu)”, respectively.

On to WELVQCLTC (not fully specified; cysteine pairing not given here, whole phage in the assay) [phage clone Ec 1], for which the binding result in test [3] is “binds”; in test [4], “binds”; in test [5], “no binding (tested: 10^9 pfu)”.

B7: phage clone Ec 21 (peptide)
peptide: WQWCFKATC
modifications: not fully specified; cysteine pairing not given here; also: displayed on M13 phage pIII
notes: whole phage in the assay
Consider B7, for which the figures for the binding result in test [3], in test [4] and in test [5] were “binds”, “binds” and “no binding (tested: 10^9 pfu)”, respectively.

For the molecule WLQPYFPSY (whole phage in the assay) [phage clone Nc 1], the binding result in test [1] and in test [2] was “no binding (tested: 10^9 pfu)” each time.

Regarding WELRVSSPC (whole phage in the assay) [phage clone Nc a7], the binding result in test [1] and in test [2] was “no binding (tested: 10^9 pfu)” each time.

B8: phage clone Nc 15 (peptide)
peptide: WEVCLTEKC
modifications: not fully specified; cysteine pairing not given here; also: displayed on M13 phage pIII
notes: whole phage in the assay
Take B8: the binding result in test [1] and in test [2] was “no binding (tested: 10^9 pfu)” each time.

Take WEVRLTEKC (whole phage in the assay) [phage clone Nc a3]: the binding result in test [1] and in test [2] was “no binding (tested: 10^9 pfu)” throughout.

B9: phage clone Ec a4 (peptide)
peptide: CSKYNSPLC
modifications: not fully specified; cysteine pairing not given here; also: displayed on M13 phage pIII
notes: whole phage in the assay
For the molecule B9, the figures for the binding result in test [3], in test [4] and in test [5] were “binds”, “binds” and “no binding (tested: 10^9 pfu)”, respectively.
